# Data published in publication PMC6830213, “High-throughput structures of protein–ligand complexes at room temperature using serial femtosecond crystallography” (IUCrJ, 2019).
# B1: Dehaloperoxidase B from Amphitrite ornata (enzyme)
# chain: GFKQDIATLRGDLRTYAQDIFLAFLNKYPDEKRNFKNYVGKSDQELKSMAKFGDHTEKVFNLMMEVADRATDCVPLASDASTLVQMKQHSGLTTGNFEKLFVALVEYMRASGQSFDSQSWDRFGKNLVSALSSAGMK
# notes: Dehaloperoxidase B (DHP-B), heme peroxidase from the marine annelid Amphitrite ornata; Heme protein; Crystallised with the small ligands DCP or 5BR soaked in; also called DHP-B; DHP; source: expressed and purified as described previously (McCombs, Moreno-Chicano et al., 2017)
# How the values were obtained:
# [1] = target: Dye-type peroxidase Aa from Streptomyces lividans (Streptomyces lividans); assay: crystal structure; serial femtosecond crystallography at room temperature, microcrystals on silicon fixed-target chips, SACLA beamline BL2 EH3; two monomers (homodimer) in the crystallographic asymmetric unit
# [2] = target: T1, dehaloperoxidase B (DHP-B; DHP) (Amphitrite ornata, UniProt Q9NAV7); assay: SFX crystal structure, room temperature, […] A; format: binding; conditions: 3-5 min, distal heme pocket, not bound to iron
# T1 construct: homodimer in the asymmetric unit
# [3] = target: the molecule itself; assay: crystal structure; serial femtosecond crystallography at room temperature, microcrystals on silicon fixed-target chips, SACLA beamline BL2 EH3; two monomers (homodimer) in the crystallographic asymmetric unit
molecule,measurement,setting,value
Dye-type peroxidase Aa from Streptomyces lividans (enzyme),stoichiometry N,[1],2
"Oc1ccc(Cl)cc1Cl [2,4-dichlorophenol]","SFX crystal structure, room temperature, 1.85 A","[2]; crystals pH 6.0, soaked 5 mM, near-full occupancy in monomer B",DCP exhibited a binding site that was virtually identical to those previously observed
Brc1ccc2[nH]ccc2c1 [5-bromoindole],"SFX crystal structure, room temperature, 1.85 A","[2]; crystals pH 6.0, soaked 50 mM, lower occupancy in second monomer",the 5BR complex was consistent with a computationally hypothesized binding site
B1,stoichiometry N,[3],2
